We go through two proteins from PMC5863767, “Mps1 Phosphorylates Its N-Terminal Extension to Relieve Autoinhibition and Activate the Spindle Assembly Checkpoint” (Current Biology, 2018).

The series deals with the molecule itself. The series can be described thus: cross-linking; BS3 cross-linking of purified GST-Mps1 (10:1 protein:BS3, 2 h on ice; 50 mM HEPES pH 7.5, 250 mM KCl, 0.05% NP-40, 1 mM DTT), NATIVE-PAGE, bands of cross-linked dimers excised, cross-linked peptides identified by mass spectrometry.

B1: GST-Mps1-WT (enzyme, human, UniProt P33981 1-857, looked up)
chain: MESEDLSGRELTIDSIMNKVRDIKNKFKNEDLTDELSLNKISADTTDNSGTVNQIMMMANNPEDWLSLLLKLEKNSVPLSDALLNKLIGRYSQAIEALPPDKYGQNESFARIQVRFAELKAIQEPDDARDYFQMARANCKKFAFVHISFAQFELSQGNVKKSKQLLQKAVERGAVPLEMLEIALRNLNLQKKQLLSEEEKKNLSASTVLTAQESFSGSLGHLQNRNNSCDSRGQTTKARFLYGENMPPQDAEIGYRNSLRQTNKTKQSCPFGRVPVNLLNSPDCDVKTDDSVVPCFMKRQTSRSECRDLVVPGSKPSGNDSCELRNLKSVQNSHFKEPLVSDEKSSELIITDSITLKNKTESSLLAKLEETKEYQEPEVPESNQKQWQSKRKSECINQNPAASSNHWQIPELARKVNTEQKHTTFEQPVFSVSKQSPPISTSKWFDPKSICKTPSSNTLDDYMSCFRTPVVKNDFPPACQLSTPYGQPACFQQQQHQILATPLQNLQVLASSSANECISVKGRIYSILKQIGSGGSSKVFQVLNEKKQIYAIKYVNLEEADNQTLDSYRNEIAYLNKLQQHSDKIIRLYDYEITDQYIYMVMECGNIDLNSWLKKKKSIDPWERKSYWKNMLEAVHTIHQHGIVHSDLKPANFLIVDGMLKLIDFGIANQMQPDTTSVVKDSQVGTVNYMPPEAIKDMSSSRENGKSKSKISPKSDVWSLGCILYYMTYGKTPFQQIINQISKLHAIIDPNHEIEFPDIPEKDLQDVLKCCLKRDPKQRISIPELLAHPYVQIQTHPVNQMAKGTTEEMKYVLGQLVGLNSPNSILKAAKTLYEHYSGGESHNSSSSKTFEKKRGKK
notes: Mps1 kinase, human, wild type, full-length polypeptide; also called active Mps1; source: baculovirus-infected Sf9 cells, purified (glutathione-agarose, eluted with glutathione)
Turning to B1, the binding result is given as “binds”.

B2: GST-Mps1-KD (enzyme, human, UniProt P33981 1-857, looked up)
chain: MESEDLSGRELTIDSIMNKVRDIKNKFKNEDLTDELSLNKISADTTDNSGTVNQIMMMANNPEDWLSLLLKLEKNSVPLSDALLNKLIGRYSQAIEALPPDKYGQNESFARIQVRFAELKAIQEPDDARDYFQMARANCKKFAFVHISFAQFELSQGNVKKSKQLLQKAVERGAVPLEMLEIALRNLNLQKKQLLSEEEKKNLSASTVLTAQESFSGSLGHLQNRNNSCDSRGQTTKARFLYGENMPPQDAEIGYRNSLRQTNKTKQSCPFGRVPVNLLNSPDCDVKTDDSVVPCFMKRQTSRSECRDLVVPGSKPSGNDSCELRNLKSVQNSHFKEPLVSDEKSSELIITDSITLKNKTESSLLAKLEETKEYQEPEVPESNQKQWQSKRKSECINQNPAASSNHWQIPELARKVNTEQKHTTFEQPVFSVSKQSPPISTSKWFDPKSICKTPSSNTLDDYMSCFRTPVVKNDFPPACQLSTPYGQPACFQQQQHQILATPLQNLQVLASSSANECISVKGRIYSILKQIGSGGSSKVFQVLNEKKQIYAIKYVNLEEADNQTLDSYRNEIAYLNKLQQHSDKIIRLYDYEITDQYIYMVMECGNIDLNSWLKKKKSIDPWERKSYWKNMLEAVHTIHQHGIVHSDLKPANFLIVDGMLKLIAFGIANQMQPDTTSVVKDSQVGTVNYMPPEAIKDMSSSRENGKSKSKISPKSDVWSLGCILYYMTYGKTPFQQIINQISKLHAIIDPNHEIEFPDIPEKDLQDVLKCCLKRDPKQRISIPELLAHPYVQIQTHPVNQMAKGTTEEMKYVLGQLVGLNSPNSILKAAKTLYEHYSGGESHNSSSSKTFEKKRGKK
notes: Mps1 kinase, human, kinase-dead, full-length polypeptide; also called kinase-dead (D664A); source: baculovirus-infected Sf9 cells, purified (glutathione-agarose, eluted with glutathione)
As for B2, the binding result was “binds”.
